To fix the notation:
B1: NEK9 peptide 736-751 (Serine/threonine-protein kinase Nek9), 16-mer library wild type / NSP9 (ORF1ab Nsp9, residues 4141-4253) (parent)
chain 1: NSSGLSIGTVFQSSSP
chain 2: NNELSPVALRQMSCAAGTTQTACTDDNALAYYNTTKGGRFVLALLSDLQDLKWARFPKSDGTGTIYTELEPPCRFVTDTPKGPKVKYLYFIKGLNNLNRGMVLGSLAATVRLQ
B2: ICA1L peptide 453-468 (Islet cell autoantigen 1-like protein), 16-mer library wild type / NSP16 (ORF1ab Nsp16, residues 6799-7088) (parent)
chain 1: MSAWFNLFADLDPLSN
chain 2: SSQAWQPGVAMPNLYKMQRMLLEKCDLQNYGDSATLPKGIMMNVAKYTQLCQYLNTLTLAVPYNMRVIHFGAGSDKGVAPGTAVLRQWLPTGTLLVDSDLNDFVSDADSTLIGDCATVHTANKWDLIISDMYDPKTKNVTKENDSKEGFFTYICGFIQQKLALGGSVAIKITEHSWNADLYKLMGHFAWWTAFVTNVNASSSEAFLIGCNYLGKPREQIDGYVMHANYIFWRNTNPIQLSSYSLFDMSKFPLKLRGTAVMSLKEGQINDMILSLLSKGRLIIRENNRVVI
B3: NCOA2 peptide 1073-1088 (Nuclear receptor coactivator 2), 16-mer library wild type / NSP3 UBl1 (ORF1ab Nsp3a Ub1, residues 819-925) (parent)
chain 1: PSDEGALLDQLYLALR
chain 2: APTKVTFGDDTVIEVQGYKSVNITFELDERIDKVLNEKCSAYTVELGTEVNEFACVVADAVIKTLQPVSELLTPLGIDLDEWSMATYYLFDESGEFKLASHMYCSFY
B4: AZIN2 peptide 1-16 (Antizyme inhibitor 2), 16-mer library wild type / NSP3 ADRP (ORF1ab Nsp3b ADRP, residues 1023-1192) (parent)
chain 1: MAGYLSESDFVMVEEG
chain 2: not shown

One test covers variants of B1. The conditions noted are these: with NSP9 (ORF1ab Nsp9, residues 4141-4253); bait immobilised on MaxiSorp plates (10 µg), library pre-cleared on GST, 2 h binding at 4 °C, five washes; one round per day, days 1-4; value from days 2 and 3; keep out of graded; scale: average fractional NGS count over selection days 2 and 3.
For chain 1 S15M, the screen value was found to be 0.000159.

Consider chain 1 S15A, for which the screen value was 2.5e-05. chain 1 I7G: the screen value was determined as 0. Take chain 1 I7S: the screen value was 0. Still for that read-out and setting: under chain 1 I7L stands 9.86e-05; under chain 1 S14I, 0.0016; under chain 1 S14N, 3.83e-05. chain 1 S14D: the screen value was determined as 7.14e-05. For chain 1 S14T, the screen value was 0. On to chain 1 S14E, for which the screen value was 0. Turning to chain 1 S14F, the screen value came to 0.000194. For chain 1 S2Q, the screen value worked out at 2.69e-05. Same read-out and setting: the result for chain 1 S2G reads 2.56e-05. On to chain 1 S2P, for which the screen value was 0.00012. With chain 1 S2H, the screen value is 0. Regarding chain 1 Q12S, the screen value was found to be 4.58e-05. Consider chain 1 Q12P, for which the screen value amounted to 0. Regarding chain 1 Q12Y, the screen value amounted to 1.21e-05.

chain 1 Q12D: the screen value is 3.3e-05. The same measure, in the same setting: under chain 1 Q12M stands 1.76e-05; under chain 1 Q12A, 1.81e-05. chain 1 Q12V: the screen value is 0. Same read-out and setting: the result for chain 1 Q12E reads 0.00594; that for chain 1 Q12N, 0.000424; that for chain 1 Q12I, 0.

In another test the parent is B2. The conditions noted are these: with NSP16 (ORF1ab Nsp16, residues 6799-7088); bait immobilised on MaxiSorp plates (10 µg), library pre-cleared on GST, 2 h binding at 4 °C, five washes; one round per day, days 1-4; value from days 2 and 3; keep out of graded; scale: average fractional NGS count over selection days 2 and 3.
Take chain 1 S2D: the screen value amounted to 0.00136.

As to chain 1 S2L, the screen value came out at 0. As for chain 1 A3L, the screen value was 0. Turning to chain 1 A3P, the screen value was 0. As to chain 1 A3D, the screen value was 4.01e-05.

As for chain 1 N6K, the screen value worked out at 0. As for chain 1 N6R, the screen value was determined as 0. The same measure, in the same setting: under chain 1 W4A stands 0; under chain 1 A9N, 0.

As to chain 1 L11P, the screen value is 0. With chain 1 L11W, the screen value amounted to 0. As to chain 1 L11I, the screen value amounted to 1.35e-05.

Consider chain 1 S15R, for which the screen value worked out at 0. With chain 1 L7S, the screen value amounted to 0.

Take chain 1 D10Y: the screen value was 6.76e-05. In the case of chain 1 F8Y, the screen value was determined as 0. Consider chain 1 F5L, for which the screen value was 0.

For the variant chain 1 F5W, the screen value was 0. chain 1 P13V: the screen value stood at 0.

Variants of B3 are the subject of a further test. The conditions noted are these: with NSP3 UBl1 (ORF1ab Nsp3a Ub1, residues 819-925); bait immobilised on MaxiSorp plates (10 µg), library pre-cleared on GST, 2 h binding at 4 °C, five washes; one round per day, days 1-4; value from days 2 and 3; keep out of graded; scale: average fractional NGS count over selection days 2 and 3.
As to chain 1 E4F, the screen value was 0.

On to chain 1 E4P, for which the screen value was found to be 0. For the variant chain 1 L13E, the screen value is 0. On the same count and under the same terms, under chain 1 L13S stands 0; under chain 1 L7T, 0; under chain 1 L7S, 0. chain 1 L7Q: the screen value stood at 0. For the variant chain 1 A14Q, the screen value came out at 0. For chain 1 A14D, the screen value is 0. The same measure, in the same setting: the result for chain 1 A14I reads 0. With chain 1 A14Y, the screen value was found to be 0.

For the variant chain 1 A14R, the screen value was 6.24e-06. With chain 1 L15I, the screen value came to 7.04e-06. Regarding chain 1 L15N, the screen value was 0. As for chain 1 D9E, the screen value came out at 2.36e-05. For the variant chain 1 D9P, the screen value turned out to be 0.000642. chain 1 D9S: the screen value worked out at 1.09e-05. Take chain 1 D9T: the screen value was 7.34e-06. With chain 1 L11I, the screen value was determined as 0.000119. The same measure, in the same setting: the result for chain 1 L11V reads 9.51e-06; that for chain 1 L11Y, 0; that for chain 1 L11P, 0. Consider chain 1 L11D, for which the screen value was determined as 0. Take chain 1 L11K: the screen value was found to be 0. The same measure, in the same setting: the result for chain 1 L11A reads 0; that for chain 1 L11R, 0; that for chain 1 R16F, 0.000746. As for chain 1 R16S, the screen value was determined as 4.51e-05.

Turning to chain 1 R16T, the screen value worked out at 0.000892. As for chain 1 R16Q, the screen value was found to be 0.00132.

Turning to chain 1 R16H, the screen value worked out at 0.000164. On to chain 1 R16M, for which the screen value was found to be 7.36e-05. With chain 1 R16Y, the screen value stood at 0.0506. For chain 1 R16I, the screen value came out at 1.03e-05. In the case of chain 1 G5N, the screen value is 0. On to chain 1 G5A, for which the screen value is 5.46e-06. The same measure, in the same setting: under chain 1 G5S stands 1.04e-05. For the variant chain 1 G5T, the screen value amounted to 0.

As to chain 1 G5I, the screen value worked out at 4.53e-05. Consider chain 1 Q10L, for which the screen value stood at 0. With chain 1 Q10M, the screen value worked out at 3.19e-06. Regarding chain 1 Q10W, the screen value is 0. On the same count and under the same terms, under chain 1 Q10A stands 0.

Regarding chain 1 L8Q, the screen value amounted to 0. On to chain 1 L8A, for which the screen value worked out at 0.

Regarding chain 1 L8S, the screen value worked out at 0. In the case of chain 1 L8K, the screen value is 0. On the same count and under the same terms, the result for chain 1 L8H reads 0; that for chain 1 L8E, 0. For chain 1 L8N, the screen value amounted to 0.

On to chain 1 D3N, for which the screen value was 1.14e-05. On to chain 1 D3E, for which the screen value is 7.04e-06. With chain 1 A6F, the screen value amounted to 1.11e-05. On the same count and under the same terms, under chain 1 A6K stands 0; under chain 1 A6R, 1.8e-05.

In the case of chain 1 A6L, the screen value is 2.33e-05.

As for chain 1 A6M, the screen value was 1.23e-05. Regarding chain 1 S2A, the screen value is 1.93e-05. Regarding chain 1 S2E, the screen value came out at 0. Regarding chain 1 S2H, the screen value came to 1.09e-05. For the variant chain 1 S2F, the screen value is 4.76e-06. Still for that read-out and setting: under chain 1 S2G stands 1.09e-05; under chain 1 S2I, 0.

The variants in a further test derive from B4. The following applies: with NSP3 ADRP (ORF1ab Nsp3b ADRP, residues 1023-1192); bait immobilised on MaxiSorp plates (10 µg), library pre-cleared on GST, 2 h binding at 4 °C, five washes; one round per day, days 1-4; value from days 2 and 3; keep out of graded; scale: average fractional NGS count over selection days 2 and 3.
For chain 1 S6T, the screen value is 0. Turning to chain 1 S6H, the screen value came out at 0.

Consider chain 1 S6G, for which the screen value is 0. As to chain 1 S6W, the screen value was 0. With chain 1 S6Q, the screen value stood at 0. For the variant chain 1 L5M, the screen value is 1.33e-05. On the same count and under the same terms, under chain 1 E7T stands 0; under chain 1 E7S, 0. Regarding chain 1 E7A, the screen value worked out at 0.

As for chain 1 M12G, the screen value was 0. Turning to chain 1 M12W, the screen value was determined as 0.

In the case of chain 1 M12Q, the screen value is 0. For the variant chain 1 M12D, the screen value was 6.55e-05. For the variant chain 1 M12P, the screen value turned out to be 6.03e-05. Regarding chain 1 M12K, the screen value was 0. Same read-out and setting: the result for chain 1 E14H reads 3.26e-05. Still for that read-out and setting: the result for chain 1 E14T reads 1.06e-05; that for chain 1 E14A, 3.37e-05. As for chain 1 E14V, the screen value was 1.13e-05. Take chain 1 E14G: the screen value was found to be 5.95e-05. In the case of chain 1 V11K, the screen value is 2.1e-05. In the case of chain 1 V11Q, the screen value came to 1.04e-05.

With chain 1 V11R, the screen value was found to be 4.17e-05. The same measure, in the same setting: under chain 1 V11N stands 1.5e-05; under chain 1 V13S, 3.26e-05; under chain 1 V13N, 6.59e-05. On to chain 1 V13P, for which the screen value was found to be 5.36e-05. On to chain 1 V13A, for which the screen value amounted to 1.13e-05. For the variant chain 1 V13F, the screen value amounted to 1.65e-05. As to chain 1 V13E, the screen value turned out to be 4.94e-05. Turning to chain 1 V13G, the screen value came out at 0.

On to chain 1 V13W, for which the screen value turned out to be 4.62e-05. Take chain 1 F10W: the screen value was 2.93e-05. Regarding chain 1 F10S, the screen value is 1.39e-05. Still for that read-out and setting: under chain 1 F10R stands 0; under chain 1 F10D, 0. Regarding chain 1 E15Y, the screen value was found to be 0. In the case of chain 1 E15W, the screen value is 0.

As to chain 1 E15K, the screen value amounted to 0. With chain 1 E15F, the screen value was found to be 0. The same measure, in the same setting: under chain 1 E15A stands 1.82e-05. With chain 1 E15M, the screen value was 0.

Turning to chain 1 E15V, the screen value is 2.58e-05. Still for that read-out and setting: under chain 1 D9I stands 2.23e-05; under chain 1 D9H, 2.63e-05. With chain 1 D9T, the screen value was determined as 2.66e-05. On to chain 1 D9A, for which the screen value was determined as 1.5e-05. Same read-out and setting: the result for chain 1 G3T reads 0; that for chain 1 G3S, 2.71e-05. Consider chain 1 G3P, for which the screen value stood at 0. In the case of chain 1 S8N, the screen value was 5.33e-05.

On to chain 1 S8D, for which the screen value was determined as 1.43e-05. Regarding chain 1 S8Q, the screen value turned out to be 2.27e-05. As to chain 1 S8F, the screen value came out at 4.02e-05. As to chain 1 G16M, the screen value came to 3.8e-05. Turning to chain 1 G16W, the screen value turned out to be 5.19e-05.

Consider chain 1 Y4F, for which the screen value was found to be 1.08e-05.

Consider chain 1 A2H, for which the screen value turned out to be 0. For the variant chain 1 A2M, the screen value worked out at 0. On to chain 1 A2G, for which the screen value amounted to 0.

Values taken from paper PMC12102759.
